Reference: article PMC6004067 (Genes & Development, 2018)

Assays:
Settings in all cases: both partners purified
[1] = biological target: T1, TATA-box-binding protein (TBP), full-length human (human, UniProt P20226 1-339); experiment: pull-down; Flag-tagged TFIIB or its mutants immobilized on Flag beads; TBP or SNAPc as analyte; buffer B2, 1 h at 4°C, four washes, Western blot
T1 construct: human TBP, full length; Two preparations of free TBP are described (Flag/His double-tagged; GST-TBP cleaved with thrombin); also called wild-type TBP; source: E. coli BL21 (DE3), purified (Ni-NTA as Flag- and His-tagged protein, or cut with thrombin from GST-TBP)

[2] = biological target: T2, GST-TBP, GST-tagged full-length human TBP (human, UniProt P20226 1-339); experiment: pull-down; GST pull-down: GST-TBP, GST-TFIIB or TBP fragments on glutathione beads; analytes in buffer B2 (150 mM NaCl), 1 h at 4°C, four washes, Western blot
T2 construct: human TBP, full length

[3] = biological target: T1, TATA-box-binding protein (TBP), …; experiment: as above

T1 sequence (P20226 whole entry): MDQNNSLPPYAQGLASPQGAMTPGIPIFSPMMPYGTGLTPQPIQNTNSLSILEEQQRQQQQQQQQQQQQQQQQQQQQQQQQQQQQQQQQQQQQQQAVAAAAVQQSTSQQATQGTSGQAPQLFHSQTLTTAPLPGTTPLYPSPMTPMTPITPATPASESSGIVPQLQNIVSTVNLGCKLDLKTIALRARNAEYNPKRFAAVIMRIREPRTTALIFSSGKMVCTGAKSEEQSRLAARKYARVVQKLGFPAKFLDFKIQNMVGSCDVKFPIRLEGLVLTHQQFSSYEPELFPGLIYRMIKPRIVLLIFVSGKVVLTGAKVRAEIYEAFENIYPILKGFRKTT
T2 sequence (P20226 whole entry, the tested form may be a part): as the sequence (P20226 whole entry) above

Row | Binder | binding result [1] | binding result [2] | binding result [3]
1 | TFIIB, full-length human, Flag- and His-tagged (natural protein, UniProt Q00403 1-316, looked up, human TFIIB, full length; also called Flag-tagged TFIIB; wild-type TFIIB; source: E. coli BL21 (DE3), purified (Ni-NTA)) MASTSRLDALPRVTCPNHPDAILVEDYRAGDMICPECGLVVGDRVIDVGSEWRTFSNDKATKDPSRVGDSQNPLLSDGDLSTMIGKGTGAASFDEFGNSKYQNRRTMSSSDRAMMNAFKEITTMADRINLPRNIVDRTNNLFKQVYEQKSLKGRANDAIASACLYIACRQEGVPRTFKEICAVSRISKKEIGRCFKLILKALETSVDLITTGDFMSRFCSNLCLPKQVQMAATHIARKAVELDLVPGRSPISVAAAAIYMASQASAEKRTQKEIGDIAGVADVTIRQSYRLIYPRAPDLFPTDFKFDTPVDKLPQL | binds | binds | 
2 | GST-TFIIB (natural protein, human, UniProt Q00403 1-316, looked up, TFIIB fused to GST) MASTSRLDALPRVTCPNHPDAILVEDYRAGDMICPECGLVVGDRVIDVGSEWRTFSNDKATKDPSRVGDSQNPLLSDGDLSTMIGKGTGAASFDEFGNSKYQNRRTMSSSDRAMMNAFKEITTMADRINLPRNIVDRTNNLFKQVYEQKSLKGRANDAIASACLYIACRQEGVPRTFKEICAVSRISKKEIGRCFKLILKALETSVDLITTGDFMSRFCSNLCLPKQVQMAATHIARKAVELDLVPGRSPISVAAAAIYMASQASAEKRTQKEIGDIAGVADVTIRQSYRLIYPRAPDLFPTDFKFDTPVDKLPQL |  |  | binds

Now from value to binder:

Row | binding result [1] | binding result [2] | binding result [3] | Binder
3 | binds |  |  | TFIIB R169E/K188E, Flag-tagged (natural protein, human, UniProt Q00403 1-316, looked up, human TFIIB with the double R169E/K188E substitution; Probably made as the full-length parent; also called double substitution) MASTSRLDALPRVTCPNHPDAILVEDYRAGDMICPECGLVVGDRVIDVGSEWRTFSNDKATKDPSRVGDSQNPLLSDGDLSTMIGKGTGAASFDEFGNSKYQNRRTMSSSDRAMMNAFKEITTMADRINLPRNIVDRTNNLFKQVYEQKSLKGRANDAIASACLYIACEQEGVPRTFKEICAVSRISEKEIGRCFKLILKALETSVDLITTGDFMSRFCSNLCLPKQVQMAATHIARKAVELDLVPGRSPISVAAAAIYMASQASAEKRTQKEIGDIAGVADVTIRQSYRLIYPRAPDLFPTDFKFDTPVDKLPQL
4 | binds |  |  | TFIIB R169E, Flag-tagged (natural protein, human, UniProt Q00403 1-316, looked up, human TFIIB with a single R169E substitution; Probably made as the full-length parent) MASTSRLDALPRVTCPNHPDAILVEDYRAGDMICPECGLVVGDRVIDVGSEWRTFSNDKATKDPSRVGDSQNPLLSDGDLSTMIGKGTGAASFDEFGNSKYQNRRTMSSSDRAMMNAFKEITTMADRINLPRNIVDRTNNLFKQVYEQKSLKGRANDAIASACLYIACEQEGVPRTFKEICAVSRISKKEIGRCFKLILKALETSVDLITTGDFMSRFCSNLCLPKQVQMAATHIARKAVELDLVPGRSPISVAAAAIYMASQASAEKRTQKEIGDIAGVADVTIRQSYRLIYPRAPDLFPTDFKFDTPVDKLPQL
